Test results published in patent CN1930187A.
Blank lines part the entries; values can stand above or below the binder they belong to.

Key:
[1] = target: EGFRvIII-rabbit Fc fusion protein (EGFRvIII-RbFc) (human; rabbit) (UniProt P00533); experiment: ELISA, transfection supernatant titrated on EGFRvIII-Rab Ig Fc coat
[2] = target: T1, Pep-3, NH2-…-OH (MW 1590 Da) (human); experiment: SPR (Biacore 2000), mAb immobilised, pep-3 injected, 1:1 model
T1 sequence (peptide): LEEKKGNYVVTDHG

[3] = target: T1, Pep-3, NH2-…-OH (MW 1590 Da) (human); experiment: SPR (Biacore 2000), mAb immobilised, pep-3 injected

titre, antigen binding (抗原结合) (titre (1:x dilution)) [1]: > 64
B1: SC-EGFRvIII-XG2-170 (antibody, human IgG1, V domains shown)
VH: QVQLQQSGPGLVKPSQTLSLTCAISGDSVSSNNAAWNWIRQSPARGLEWLGRTYYRSKWYNDYVVSVKSRITINPDTSKNQFSLQLNSVTPEDTAVYYCVRATAFDYWGQGTLVTVSS
VL: AIVLTQTPLSSPVTLGQPASISCRSSQSLVHRDGNTYLSWLQQRPGQPPRLLIYKISNRFSGVPDRFSGSGAGTDFTLKISRVEPDDVGVYYCMHTTQLPWTFGQGTKVEIK

titre, antigen binding (抗原结合) (titre (1:x dilution)) [1]: > 64
B2: SC-EGFRvIII-XG2-150 (antibody, human IgG1, V domains shown)
VH: QVQLQQSGPGLVKPSQTLSLTCAISGDSVSSYSSAWNWIRQSPSRGLEWLGRAYHRSRWYYEYAVSVKSRINITPDTSKNQFSLQLNSVTPEDTAVYYCARGSRFDYWGQGTLVTVSS
VL: DIVMTQTPLSSPVTLGQPASISCRSSQSLVHRDGNTYLSWLQQRPGQPPRLLIYKISNRFSGVPDRFSGSGAGTDFTLKISRVEAEDVGIYFCMHTTQFPWTFGQGTRVEIK

titre, antigen binding (抗原结合) (titre (1:x dilution)) [1]: > 64
B3: SC-EGFRvIII-XG1-123/124 (antibody, human IgG1, V domains shown)
VH: QVQLVESGGGVVQPGRSLRLSCAASGFTLSSYGMHWVRQAPGKGLEWVAVMSYDGSKEDYADSVKGRFTISRDNSENTLYLQMNSLRAEDTAVYYCVSEGYCSSRSCYKYYYYGMDVWGQGTTVTVSS
VL: DIVMTQSPLSLPVTPGEPASISCRSSQSLLYRNGNNYLDWYLQKPGQSPQLLIYLGSNRASGVPDRFSGSGSGTDFTLNISRVEAEDVGHYYCMQALQTPRTFGQGTKVEIK

titre, antigen binding (抗原结合) (titre (1:x dilution)) [1]: > 64
B4: SC-EGFRvIII-XG1-211 (antibody, human IgG1, V domains shown)
VH: QVQLVESGGGVVQPGRSLRLSCVASGFTLSSYGMHWVRQAPGKGLEWVAVTSYDGSKKDYADSAKGRFTISRDNSKNTLYLQMNSLRAEDTAVYYCVSEGYCSSSSCYKYYYYGMDVWGQGTTVTVSS
VL: DIVMTQSPLSLPVTPGEPASISCRSSQSLLYRNGNNYLDWYLQRPGQSPQLLIYLGSNRASGVPDRFSGSGSGTDFTLKISRVEAEDVGVYYCMQALQTPRTFGQGTKVEIK

titre, antigen binding (抗原结合) (titre (1:x dilution)) [1]: 64
B5: SC-EGFRvIII-XG1-318 (antibody, human IgG1, V domains shown)
VH: QVQLVESGGGVVQPGRSLRLSCVASGFTLSSYGMHWVRQAPGKGLEWVAVTSYDGSKKDYADSVKGRFTISRDNSKNTLYLQMNSLRAEDTAVYYCVSEGYCDSSSCYKYYYYGMDVWGQGTTVTVSS
VL: DIVMTQSPLSLPVTPGEPASISCRSSQSLLYRNGNNYLDWYLQRPGQSPQLLIYLGSNRASGVPDRFSGSGSGTDFTLKISRVEAEDVGVYYCMQALQTPRTFGQGTKVEIK

titre, antigen binding (抗原结合) (titre (1:x dilution)) [1]: > 64
B6: SC-EGFRvIII-XG1-333 (antibody, human IgG1, V domains shown)
VH: QVQLVESGGGVVQPGRSLRLSCVASGFTLSSYGMHWVRQALGKGLEWVAVTSYDGSKKDYADSVKGRFTISRDNSKNTLYLQMNSLRAEDTAVYYCVSEGYCDSTSCYKYYYYGMDVWGQGTTVTVSS
VL: DIVMTQSPLSLPVTPGEPASISCRSSQSLLYRNGNNYLDWYLQRPGQSPQLLIYLGSNRASGVPDRFSGSGSGTDFTLKISRVEAEDVGVYYCMQALQTPRTFGQGTKVEIK

titre, antigen binding (抗原结合) (titre (1:x dilution)) [1]: > 64
B7: SC-EGFRvIII-XG1-342 (antibody, human IgG1, V domains shown)
VH: QVQLVESGGGVVQPGRSLRLSCVASGFTLSSYGMHWVRQAPGKGLEWVAVTSYDGSKKDYADSVKGRFTISRDNSKNTLYLQMNSLRAEDTAVYYCVSEGYCDSTSCYKYYYYGMDVWGQGTTVTVSS
VL: DIVMTQSPLSLPVTPGEPASISCRSSQSLLYRNGNNYLDWYLQRPGQSPQLLIYLGSNRASGVPDRFSGSGSGTDFTLKISRVEAEDVGVYYCMQALQTPRTFGQGTKVEIK

titre, antigen binding (抗原结合) (titre (1:x dilution)) [1]: > 64
B8: SC-EGFRvIII-XG1-250 (antibody, human IgG1, V domains shown)
VH: EGQLLESGGGWVQPGESLRLSCAASGFTFSSYAMSWVRQAPGKGLEWVSAISGSGGSTNYADSVKGRFTISRDNSKNTLYLQVNSLRVEDTAVYYCAGSSGWSEYWGQGTLVTVSS
VL: DIQMTQSPSSLSASVGDSVTITCRTSQGIRKNLGWYQQKPGKAPKRLIYAASSLQSGVPSRFSGSGSGTEFTLTISRLQPEDFATYYCLQHHSYPLTFGGGTRVEIR

titre, antigen binding (抗原结合) (titre (1:x dilution)) [1]: > 64
koff [2]: 0.00298 s⁻¹
kon [2]: 10300 M⁻¹ s⁻¹
Kd [3]: 290 nM
koff [3]: 0.00298 s⁻¹
kon [3]: 10300 M⁻¹ s⁻¹
B9: SC-EGFRvIII-XG1-139 (antibody, human IgG1, V domains shown)
VH: EVQVLESGGGLVQPGGSLRLSCAASGFTFSSYAMSWVRQAPGKGLEWVSAISGSGGSTNYADSVKGRFTISRDNSKNTLYLQMNSLRAEDTAVYYCAGSSGWSEYWGQGTLVTVSS
VL: DIQMTQSPSSLSASVGDRVTITCRASQGIRNNLAWYQQKPGKAPKRLIYAASNLQSGVPSRFTGSGSGTEFTLIVSSLQPEDFATYYCLQHHSYPLTSGGGTKVEIK

koff [2]: 0.00993 s⁻¹
kon [2]: 149000 M⁻¹ s⁻¹
Kd [3]: 66 nM
koff [3]: 0.0099 s⁻¹
kon [3]: 149000 M⁻¹ s⁻¹
B10: AB-EGFRvIII-XG1-095 (antibody, human IgG1, V domains shown)
VH: QVQLQESGPFLVKPSQTLSLTCTVSGGSISSGGYYWSWIRQHPGKGLEWIGFIYYRGNTYYNPSLKSRVTISVDTSKNQFSLKLSSVTAADTAVYYCARDGYCSRTGCYGGWFDPWGQGTLVTVSP
VL: DIVMTQTPLSSPVTLGQPASISCRSSQSLIHTDGNIYLSWLQQRPGQPPRLLIYKISNRFSGVPDRFSGSGAGTDFTLKISRVEAEDVGVYYCMQGTQFPITFGQGTRLEIK
